From patent US20050220796A1

Assays:
[1] = biological target: DNA-dependent protein kinase catalytic subunit (DNA-PKcs) (human) (UniProt P78527); assay: cell-based or functional assay
[2] = biological target: DNA-dependent protein kinase catalytic subunit (DNA-PKcs) (human) (UniProt P78527); assay: SPR (Biacore X), scFv amine coupled to a CM-5 chip, purified DNA-PKcs as analyte, 25 C

Sequence of UniProt P78527 (P78527 whole entry): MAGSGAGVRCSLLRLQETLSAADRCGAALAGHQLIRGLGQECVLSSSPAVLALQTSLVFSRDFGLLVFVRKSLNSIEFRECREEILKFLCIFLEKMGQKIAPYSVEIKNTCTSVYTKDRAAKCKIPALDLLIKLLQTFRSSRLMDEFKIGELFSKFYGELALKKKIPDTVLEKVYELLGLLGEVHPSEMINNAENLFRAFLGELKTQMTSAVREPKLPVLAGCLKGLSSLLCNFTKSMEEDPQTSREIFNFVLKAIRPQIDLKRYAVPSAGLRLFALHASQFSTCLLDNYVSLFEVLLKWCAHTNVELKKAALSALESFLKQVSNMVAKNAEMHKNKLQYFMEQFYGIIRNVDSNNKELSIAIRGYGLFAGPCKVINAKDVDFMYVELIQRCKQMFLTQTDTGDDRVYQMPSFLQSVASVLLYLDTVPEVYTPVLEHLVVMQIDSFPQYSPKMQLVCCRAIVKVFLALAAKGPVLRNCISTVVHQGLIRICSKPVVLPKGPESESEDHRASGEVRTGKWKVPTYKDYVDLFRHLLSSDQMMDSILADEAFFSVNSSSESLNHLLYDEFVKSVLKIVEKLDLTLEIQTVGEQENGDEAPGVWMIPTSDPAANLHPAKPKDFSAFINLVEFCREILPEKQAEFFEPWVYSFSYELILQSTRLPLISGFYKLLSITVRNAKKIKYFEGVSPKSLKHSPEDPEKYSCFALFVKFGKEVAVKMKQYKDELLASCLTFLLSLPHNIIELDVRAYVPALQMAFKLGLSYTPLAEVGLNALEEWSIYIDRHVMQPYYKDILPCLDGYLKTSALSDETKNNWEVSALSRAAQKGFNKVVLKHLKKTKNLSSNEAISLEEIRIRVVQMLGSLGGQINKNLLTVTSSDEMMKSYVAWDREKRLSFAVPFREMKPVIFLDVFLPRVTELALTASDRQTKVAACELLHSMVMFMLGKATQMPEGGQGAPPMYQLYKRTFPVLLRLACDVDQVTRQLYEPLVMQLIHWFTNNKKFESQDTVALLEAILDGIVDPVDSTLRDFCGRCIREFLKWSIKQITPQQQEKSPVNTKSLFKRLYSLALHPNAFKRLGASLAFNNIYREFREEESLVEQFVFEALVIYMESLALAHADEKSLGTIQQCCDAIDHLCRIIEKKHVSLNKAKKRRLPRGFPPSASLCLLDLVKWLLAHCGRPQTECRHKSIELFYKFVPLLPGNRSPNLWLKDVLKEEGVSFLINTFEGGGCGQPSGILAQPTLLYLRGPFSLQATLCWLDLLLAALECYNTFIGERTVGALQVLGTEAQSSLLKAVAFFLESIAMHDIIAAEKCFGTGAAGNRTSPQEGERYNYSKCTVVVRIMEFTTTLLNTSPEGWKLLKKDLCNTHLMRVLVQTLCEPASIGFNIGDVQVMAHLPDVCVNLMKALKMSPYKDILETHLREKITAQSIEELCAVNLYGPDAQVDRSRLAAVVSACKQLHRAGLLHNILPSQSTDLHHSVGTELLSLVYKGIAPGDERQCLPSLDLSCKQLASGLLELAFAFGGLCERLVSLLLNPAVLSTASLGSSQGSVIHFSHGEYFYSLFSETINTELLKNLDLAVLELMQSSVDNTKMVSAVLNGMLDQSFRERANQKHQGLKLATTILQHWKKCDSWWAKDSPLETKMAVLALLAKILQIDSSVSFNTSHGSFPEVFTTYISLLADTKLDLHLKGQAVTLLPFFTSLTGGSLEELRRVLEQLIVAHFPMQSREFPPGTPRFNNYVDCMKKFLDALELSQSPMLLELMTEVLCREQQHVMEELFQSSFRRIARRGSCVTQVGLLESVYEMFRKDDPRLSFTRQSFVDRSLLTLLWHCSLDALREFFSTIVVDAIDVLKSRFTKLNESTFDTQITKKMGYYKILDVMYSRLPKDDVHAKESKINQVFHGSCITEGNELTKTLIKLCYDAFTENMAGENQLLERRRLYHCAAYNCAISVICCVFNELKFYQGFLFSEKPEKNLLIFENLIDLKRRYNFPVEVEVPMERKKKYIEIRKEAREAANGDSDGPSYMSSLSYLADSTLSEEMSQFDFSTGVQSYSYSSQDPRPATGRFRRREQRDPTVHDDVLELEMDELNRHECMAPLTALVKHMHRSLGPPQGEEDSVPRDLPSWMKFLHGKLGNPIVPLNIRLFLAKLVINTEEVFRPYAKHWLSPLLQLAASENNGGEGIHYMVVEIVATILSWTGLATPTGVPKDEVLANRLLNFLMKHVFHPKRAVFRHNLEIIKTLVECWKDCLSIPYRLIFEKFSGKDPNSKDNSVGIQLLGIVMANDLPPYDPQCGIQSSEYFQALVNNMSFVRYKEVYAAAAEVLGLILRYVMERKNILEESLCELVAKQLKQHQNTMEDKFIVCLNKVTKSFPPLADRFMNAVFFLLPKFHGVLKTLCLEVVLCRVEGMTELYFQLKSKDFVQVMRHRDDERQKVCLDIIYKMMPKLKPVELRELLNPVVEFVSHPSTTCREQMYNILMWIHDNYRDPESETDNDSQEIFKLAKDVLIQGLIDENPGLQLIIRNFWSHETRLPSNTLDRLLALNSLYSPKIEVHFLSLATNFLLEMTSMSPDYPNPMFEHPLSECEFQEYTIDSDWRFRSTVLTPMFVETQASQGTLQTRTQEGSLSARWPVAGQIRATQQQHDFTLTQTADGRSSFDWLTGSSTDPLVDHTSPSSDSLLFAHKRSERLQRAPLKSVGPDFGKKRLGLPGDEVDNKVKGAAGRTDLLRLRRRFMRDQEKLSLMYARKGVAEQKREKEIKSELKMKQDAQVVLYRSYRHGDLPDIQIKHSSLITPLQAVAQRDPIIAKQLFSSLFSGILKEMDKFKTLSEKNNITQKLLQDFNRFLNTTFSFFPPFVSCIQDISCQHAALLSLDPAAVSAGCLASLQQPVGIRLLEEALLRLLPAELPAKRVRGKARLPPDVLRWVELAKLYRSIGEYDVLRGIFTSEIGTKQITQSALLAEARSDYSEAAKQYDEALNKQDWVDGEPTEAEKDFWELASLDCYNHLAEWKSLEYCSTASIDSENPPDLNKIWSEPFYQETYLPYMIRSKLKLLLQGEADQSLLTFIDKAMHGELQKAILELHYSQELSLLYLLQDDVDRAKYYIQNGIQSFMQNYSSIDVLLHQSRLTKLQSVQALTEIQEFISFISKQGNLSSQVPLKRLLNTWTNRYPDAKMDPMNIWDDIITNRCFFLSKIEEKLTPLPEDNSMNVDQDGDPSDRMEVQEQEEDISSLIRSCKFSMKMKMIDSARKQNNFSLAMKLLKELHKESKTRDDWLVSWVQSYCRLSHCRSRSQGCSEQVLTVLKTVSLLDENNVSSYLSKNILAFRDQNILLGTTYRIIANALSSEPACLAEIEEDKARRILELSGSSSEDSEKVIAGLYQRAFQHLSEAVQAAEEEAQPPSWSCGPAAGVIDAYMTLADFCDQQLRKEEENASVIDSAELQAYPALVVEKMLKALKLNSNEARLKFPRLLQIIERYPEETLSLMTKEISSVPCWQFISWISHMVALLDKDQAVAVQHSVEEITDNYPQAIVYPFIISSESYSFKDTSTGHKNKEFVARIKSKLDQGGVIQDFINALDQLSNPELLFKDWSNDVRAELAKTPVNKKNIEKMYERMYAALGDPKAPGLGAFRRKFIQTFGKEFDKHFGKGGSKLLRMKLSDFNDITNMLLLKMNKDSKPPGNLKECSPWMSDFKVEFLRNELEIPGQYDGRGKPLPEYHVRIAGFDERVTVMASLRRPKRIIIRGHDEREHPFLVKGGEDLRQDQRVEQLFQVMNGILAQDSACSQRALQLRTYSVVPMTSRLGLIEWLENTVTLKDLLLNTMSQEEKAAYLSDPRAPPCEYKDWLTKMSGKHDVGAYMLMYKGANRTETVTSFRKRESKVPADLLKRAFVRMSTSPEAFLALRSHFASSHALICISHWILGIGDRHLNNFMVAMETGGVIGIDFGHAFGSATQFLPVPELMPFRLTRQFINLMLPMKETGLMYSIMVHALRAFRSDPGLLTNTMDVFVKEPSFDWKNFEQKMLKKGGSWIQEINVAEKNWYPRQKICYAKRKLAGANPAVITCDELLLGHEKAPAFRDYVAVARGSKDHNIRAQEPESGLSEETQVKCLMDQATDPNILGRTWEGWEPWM

B1: scFv 18-2 (scFv, V domains shown)
VH: QVKLQESGAELVKPGASVKLSCKAFDYTFTTYDINWIKQRPGQGLWIGWIYPGSGNNKYNEKFKGKATLTADKSSRAAYMHLSSLTSEDSAVYFCAGGPLNMTGFDYWGQGTTVTVSS
VL: DIELTQSPSSMYASLGERVTITCKASQDINSYLSWFQQKPGKSPKTLIYRANRLVDGVPSRFSGSGSGQDYSLTISSLEYEDMGIYYCLQYDELPLTFGAGTKLEIK
decrease in p53 peptide phosphorylation activity [1]: 50%
Kd [2]: 1.4 nM
